Assay results reported in patent publication US20150111231A1 (SHIONOGI, published 2015).
Groups on a side chain read outwards from the residue. Primed or numbered codes have the meaning given here. No end group written: not given here. *: point of attachment. Biotin = O=C1N[C@H]2[C@H](CS[C@H]2CCCCC(=O)*)N1; PEG2′ = not defined here

B1: biotinylated N-terminal cysteine-containing neoepitope peptide (peptide)
peptide: C([Maleimide-PEG2′-Biotin])TEEISEVKM
notes: also called biotinylated peptide; biotynylated peptide
B2: Fragment 2 (peptide)
peptide: NEVEPVDARPAA
notes: partial peptide of the 5H10 immunogen; also called fragment peptide 2
B3: Fragment 1 (peptide)
peptide: DSVPANTENEVE
notes: partial peptide of the 5H10 immunogen; also called fragment peptide 1
B4: Fragment 3 (peptide)
peptide: RPAADRGLTTRP
notes: partial peptide of the 5H10 immunogen; also called fragment peptide 3
B5: Immunogen peptide (peptide)
peptide: DSVPANTENEVEPVDARPAADRGLTTRPGSGLTNC
notes: also called C-terminal cysteine-containing internal structural peptide; Immunogen 2 peptide
B6: anti-neoepitope antibody 4G4 (antibody, IgG2a, V domains shown)
VH: EMKLVESGGGLVEPGGSLKLSCAASGFTFSNYAMSWVRQTPDKRLEWVASIGRGGSTFYPDSVKGRFTISRDRVRNILYLQMNSLRSEDTAIYYCRVIYSQSISFDYWGQGTTLTVSS
VL: not shown
notes: It was biotinylated when used as capture antibody in the sandwich ELISA; also called anti-sAPP β monoclonal antibody (4G4)

Key:
[1] = target: B6; assay: competitive ELISA: 4G4 captured on anti-mouse IgG plate, unlabelled immunogen peptide (SEQ ID No. 2) varied against the biotinylated neoepitope peptide with streptavidin-HRP
Protocol: 10 μl of the antibody solution containing 4G4 and 10 μl of the immunogen peptide (SEQ ID No.:2) or the long peptide ([…] SEQ ID No. 3 SIGMA) or human sAPPβ (MESO SCALE DISCOVERY) or human sAPPα (MESO SCALE DISCOVERY) and 10 μl of 0.04 ng the biotynylated peptide and 2 ng streptavidin-HRP in buffer A were placed into the above anti-mouse IgG-immobilized plates and incubated overnight at 4° C. The plates were washed three times and 25 μl of TMB substrate solution (DAKO) was added and incubated for 30 min. The reaction was finally stopped by addition of 25 μl of 0.05NH2SO4, and optical absorbance was measured at wavelength of 450 nm (FIG. 3).

[2] = target: T1, anti-internal structure antibody 5H10; assay: competitive ELISA of 5H10, unlabelled peptide varied against the biotinylated internal structural peptide
T1 construct: also called internal antibody 5H10; internal structural antibody
T1 sequence (VH, as listed by the source, chain 1 of 2): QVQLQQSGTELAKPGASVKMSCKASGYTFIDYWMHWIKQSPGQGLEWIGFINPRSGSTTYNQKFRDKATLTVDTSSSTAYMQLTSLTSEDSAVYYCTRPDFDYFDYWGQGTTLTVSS
T1 sequence (VL, as listed by the source, chain 2 of 2): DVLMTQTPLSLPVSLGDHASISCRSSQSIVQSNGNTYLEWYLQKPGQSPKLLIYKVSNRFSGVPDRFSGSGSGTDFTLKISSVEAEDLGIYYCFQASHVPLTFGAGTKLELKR
Protocol: Reactivity of the antibody, 5H10 to the four fragment peptides 1˜4 (SEQ ID No.: 8, 9, 10, 11) was evaluated by competitive ELISA in the same method as Example 1.

[3] = target: B1; assay: screening ELISA: hybridoma supernatant on anti-mouse IgG plate, biotinylated peptide and streptavidin-HRP

Binder	binding result [2]	also measured
B1	–	binding result [1]: binds
B2	no binding (tested: about 150 nM)	–
B3	no binding (tested: about 150 nM)	–
B4	no binding (tested: about 150 nM)	–
B5	binds	–
B6	–	binding result [3]: binds
